According to US20240182549A1, “PEPTIDES AND ANTIBODY FUSIONS THAT BIND TO SARS-COV-2 AND METHODS OF USING SAME” (priority 2021, published 2024):
Ends that are not written are not given here.

Tests used:
S protein ECD [1] = target: T1, S protein ECD (Severe acute respiratory syndrome coronavirus 2, UniProt P0DTC2, K986P/R682S/R683S/R685S/V987P)
S protein ECD [2] = target: T1, S protein ECD; remark: listed apart in the source
SARS-CoV-2 S protein = SARS-CoV-2 S protein (Severe acute respiratory syndrome coronavirus 2, UniProt P0DTC2, K986P/R682S/R683S/R685S/V987P)

Substance	peptide-phage binding to ECD blocked by NTD-binding antibodies (S protein ECD [1])	peptide-phage binding to ECD blocked by RBD-binding antibodies (S protein ECD [1])	binding to S protein ectodomain (in words) (S protein ECD [2])	affinity improvement over 15033 (SARS-CoV-2 S protein)
p16 (DFDFAENWMEQLKVML; not fully specified)	blocked	not by those that bound to the ACE2-binding site of the RBD	did not exhibit detectable binding	significant affinity improvement
p102 (ECWEWSYQLQEWSPCP; not fully specified; cysteine pairing not given here)	not by those that bound to the NTD	blocked		
